Experimental data as given in paper PMC3675498.
Like-named read-outs stand apart in the source and are kept apart here.

B1: α62 (dsDNA)
DNA 1: CCTGCAGATACTACCAAAAGTGTATTTGGAAACTGCTCCATCAAAAGGCATGTTCAGCTGGA
DNA 2: TCCAGCTGAACATGCCTTTTGATGGAGCAGTTTCCAAATACACTTTTGGTAGTATCTGCAGG
B2: Cen4 CDEII 78 bp (dsDNA)
DNA 1: CTTATAATCAACTTTTTTAAAAATTTAAAATACTTTTTTATTTTTTATTTTTAAACATAAATGAAATAATTTATTTAT
DNA 2: ATAAATAAATTATTTCATTTATGTTTAAAAATAAAAAATAAAAAAGTATTTTAAATTTTTAAAAAAGTTGATTATAAG

Legend:
Assay in all cases: EMSA
Cse4-Δ90 octamer = Cse4-Δ90 octamer (UniProt P36012;P02309;P04911;P02293 91-229;2-103;2-132;2-131)
[1] = target: T1, Cse4 octamer (Cse4/H4/H2A/H2B), splits to hemisome (UniProt P36012;P02309;P04911;P02293 1-229;1-103;1-132;1-131)
[2] = target: T2, H3 octamer (H3/H4/H2A/H2B), splits to hemisome (UniProt P61830;P02309;P04911;P02293 2-136;2-103;2-132;2-131)
[3] = target: T1, Cse4 octamer (Cse4/H4/H2A/H2B), splits …; remark: listed apart in the source
[4] = target: T2, H3 octamer (H3/H4/H2A/H2B), splits to …; remark: listed apart in the source

T1 sequence (P36012 whole entry, chain 1 of 2): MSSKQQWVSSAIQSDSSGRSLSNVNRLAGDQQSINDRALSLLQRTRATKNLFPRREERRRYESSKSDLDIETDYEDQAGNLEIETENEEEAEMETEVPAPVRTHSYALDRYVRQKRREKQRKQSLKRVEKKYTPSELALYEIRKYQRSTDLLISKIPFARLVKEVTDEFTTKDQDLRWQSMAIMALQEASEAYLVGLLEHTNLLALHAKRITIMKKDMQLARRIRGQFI
T1 sequence (P02293 whole entry, chain 4 of 2): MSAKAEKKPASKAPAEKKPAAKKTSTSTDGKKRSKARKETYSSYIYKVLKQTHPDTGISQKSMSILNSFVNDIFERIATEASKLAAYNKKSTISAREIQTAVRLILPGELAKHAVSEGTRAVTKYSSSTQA
T2 sequence (P04911 2-132, chain 3 of 2): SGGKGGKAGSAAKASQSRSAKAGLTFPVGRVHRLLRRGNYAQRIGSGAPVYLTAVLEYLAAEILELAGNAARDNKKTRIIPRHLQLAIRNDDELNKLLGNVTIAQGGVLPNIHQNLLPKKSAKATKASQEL
T2 sequence (P02293 2-131, chain 4 of 2): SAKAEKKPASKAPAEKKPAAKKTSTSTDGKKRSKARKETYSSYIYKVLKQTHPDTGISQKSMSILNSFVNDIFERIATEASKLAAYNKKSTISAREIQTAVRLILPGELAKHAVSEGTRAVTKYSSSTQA
Chain of Cse4-Δ90 octamer (P04911 2-132, stated change not applied, chain 3 of 2): as the sequence (P04911 2-132, chain 3 of 2) above
Chain of Cse4-Δ90 octamer (P02293 2-131, stated change not applied, chain 4 of 2): as the sequence (P02293 2-131, chain 4 of 2) above

Row | Binder | binding result (Cse4-Δ90 octamer) | binding result [1] | binding result [2] | binding result [3] | binding result [4]
1 | B1 | binds | binds | binds |  | 
2 | B2 |  |  |  | binds | binds
